# In patent US20060035265A1:
# Experiments:
# FLAG-Zwt fusion protein [1] = assay: scintillation counting of antibody-coated beads after mixing with 35S-labelled transcription/translation mix
# FLAG-ZIgA fusion protein [2] = assay: as above
# FLAG-Zwt fusion protein [3] = assay: scintillation counting of beads after mixing with 35S-labelled transcription/translation mix; negative control without antibody
# FLAG-ZIgA fusion protein [4] = assay: as above
Signal (cpm) (FLAG-Zwt fusion protein [1]),Signal (cpm) (FLAG-ZIgA fusion protein [2]),Signal (cpm) (FLAG-Zwt fusion protein [3]),Signal (cpm) (FLAG-ZIgA fusion protein [4]),Substance
35000 cpm,43700 cpm,–,–,biotinylated anti-FLAG BioM5 monoclonal antibody (Sigma prod no. F-2922)
–,–,4860 cpm,5960 cpm,streptavidin on native streptavidin (SA) beads (M-280-SA Dynabeads) (from UniProt P22629 37-163)
